Experimental findings from patent US20060263342A1 (YEDA RESEARCH AND DEVELOPMENT, published 2006) are described below.

Assay [1] addresses murine B7.1 on HCT/HHD/B7.1 cells (murine) (UniProt Q00609). Description: flow cytometry on HCT/HHD/B7.1 cells.
Assay [2] deals with T1, HLA-A2.1 on T2 cells (human).
T1 construct: MHC class I molecule without the tested peptide
Briefly: T2 stabilization assay, acid stripped T2 cells with peptide and recombinant β2m, BB7.2 staining, FACS.
Experimental: (§1) T2 cells were acid stripped and incubated with the indicated peptide and recombinant β2m or with β2m alone as a negative control. […] Cells were stained with BB7.2 mAb and analyzed by FACS. The number of positive cells above control level is indicated for each of the peptides.

The target of assay [3] is T1, HLA-A2.1 on T2 cells. Briefly: T2 stabilization assay, FACS.
Experimental: as §1

murine B7.1 on HCT/HHD/B7.1 cells (murine), sequence (Q00609 38-306): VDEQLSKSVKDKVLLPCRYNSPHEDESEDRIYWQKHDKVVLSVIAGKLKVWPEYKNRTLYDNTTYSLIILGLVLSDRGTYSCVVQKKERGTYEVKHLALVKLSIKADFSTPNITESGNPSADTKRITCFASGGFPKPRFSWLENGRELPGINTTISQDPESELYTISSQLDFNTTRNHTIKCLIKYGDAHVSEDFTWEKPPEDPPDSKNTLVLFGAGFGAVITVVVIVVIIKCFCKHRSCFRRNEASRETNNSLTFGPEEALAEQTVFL

Take CTLA-4-Ig fusion protein (Fc fusion): in assay [1], the percent stained cells was determined as 100%.

B1: peptide 3-5 (from human 1-8D interferon induced transmembrane protein 2) (peptide)
peptide: LILGIFMTI
notes: also called 1-8D peptide 3-5
Turning to B1, the binding result with HLA-A2.1 on T2 cells [2] is recorded as “binds”.

B2: peptide 3-7 (from human 1-8D and 1-8U interferon inducible genes) (peptide)
peptide: KCLNIWALI
notes: also called 1-8D peptide 3-7
B2: the binding result in the assay with HLA-A2.1 on T2 cells [3] is listed as “binds”.
